The target in assay [1] is Human L1CAM (purified protein) (human) (UniProt P32004). The assay can be described thus: BLI, Octet RED384; antibody captured on AHC sensor, human L1CAM 50-0.78 nM as analyte. For orientation: In BLI a coated tip is dipped into the sample, and binding shifts an interference pattern.
For assay [2], the target named is T1, Mouse L1CAM on B16F1 cells (mouse, UniProt P11627 20-1260).
T1 construct: whole, on cells; also called mouse L1CAM-positive cells
The assay can be described thus: flow cytometry on B16F1 cells, antibody 10 ug/ml, FITC anti-human IgG Fc secondary. How it is done:
In order to examine whether the variant antibodies selectively bind to human and mouse L1CAM, flow cytometry was performed using various types of cells. In this regard, as a comparative antibody, the Ab417 antibody which binds to human L1 CAM and mouse L1 CAM was used.
CHO-DG44 (ATCC No. PTA-3356) cells that are known to express no human L1CAM were cultured and used as a negative control. Also, cells expressing human L1CAM, human ovarian carcinoma, SKOV3 (ATCC No. HTB-77) and human non-small cell lung carcinoma, NCI-H522 (AYCC NO. CRL-5810) were cultured. As cells expressing mouse L1CAM, a melanoma cell line, B16F1 (ATCC No. CRL-6323) was cultured. The cultured cells were harvested using a dissociation buffer or 0.05% trypsin (GIBCO) for CHO-DG44 cell, resuspended in 1% PBA solution, and placed on ice for 20 minutes. The cells were then added to round bottom polystyrene test tube (Falcon) at a density of 4×10⁵ cells per tube. The purified antibodies were diluted in PBA solution at a concentration of 10 ug/ml, and 100 μl was added to each tube and mixed well. The tubes were placed in 4° C. for 1 hour. The secondary antibody which specifically binds to the Fc region of human IgG and is covalently linked with FITC (Sigma) was added to each tube at a ratio of 1:2000. The plate was wrapped with foil to block light and allowed to react at 4° C. for 1 hour. A staining reagent PI (propidium iodide, Sigma) was added at a ratio of 1:200 to evaluate cell viability. After all reactions were completed, FITC and PI fluorescent signals were detected in the cells.
On the technique in general: Flow cytometry measures light scatter and fluorescence of single cells or particles in a stream.

For assay [3], the target named is Human L1CAM (purified protein) (human) (UniProt P32004). The assay can be described thus: BLI (Octet RED384), antibody captured on AHC sensor, human L1CAM in solution; upper end told of the variants as a group, tied to Ab4H5 by the KD values of the same paragraph (0.2 nM against 8 pM).
The target is the same in assay [4]. The assay can be described thus: competitive ELISA; antibody pre-incubated with soluble human L1CAM, free antibody detected on coated human L1CAM. On the technique in general: ELISA stands for enzyme-linked immunosorbent assay.
Assay [5] has the same target. The assay can be described thus: competitive ELISA; lower end of the range, tied to Ab612 by Table 9.
Assay [6] shares this target. Put plainly: competitive ELISA; upper end of the range, tied to Ab2C2 by Table 9.

T1 sequence (P11627 20-1260): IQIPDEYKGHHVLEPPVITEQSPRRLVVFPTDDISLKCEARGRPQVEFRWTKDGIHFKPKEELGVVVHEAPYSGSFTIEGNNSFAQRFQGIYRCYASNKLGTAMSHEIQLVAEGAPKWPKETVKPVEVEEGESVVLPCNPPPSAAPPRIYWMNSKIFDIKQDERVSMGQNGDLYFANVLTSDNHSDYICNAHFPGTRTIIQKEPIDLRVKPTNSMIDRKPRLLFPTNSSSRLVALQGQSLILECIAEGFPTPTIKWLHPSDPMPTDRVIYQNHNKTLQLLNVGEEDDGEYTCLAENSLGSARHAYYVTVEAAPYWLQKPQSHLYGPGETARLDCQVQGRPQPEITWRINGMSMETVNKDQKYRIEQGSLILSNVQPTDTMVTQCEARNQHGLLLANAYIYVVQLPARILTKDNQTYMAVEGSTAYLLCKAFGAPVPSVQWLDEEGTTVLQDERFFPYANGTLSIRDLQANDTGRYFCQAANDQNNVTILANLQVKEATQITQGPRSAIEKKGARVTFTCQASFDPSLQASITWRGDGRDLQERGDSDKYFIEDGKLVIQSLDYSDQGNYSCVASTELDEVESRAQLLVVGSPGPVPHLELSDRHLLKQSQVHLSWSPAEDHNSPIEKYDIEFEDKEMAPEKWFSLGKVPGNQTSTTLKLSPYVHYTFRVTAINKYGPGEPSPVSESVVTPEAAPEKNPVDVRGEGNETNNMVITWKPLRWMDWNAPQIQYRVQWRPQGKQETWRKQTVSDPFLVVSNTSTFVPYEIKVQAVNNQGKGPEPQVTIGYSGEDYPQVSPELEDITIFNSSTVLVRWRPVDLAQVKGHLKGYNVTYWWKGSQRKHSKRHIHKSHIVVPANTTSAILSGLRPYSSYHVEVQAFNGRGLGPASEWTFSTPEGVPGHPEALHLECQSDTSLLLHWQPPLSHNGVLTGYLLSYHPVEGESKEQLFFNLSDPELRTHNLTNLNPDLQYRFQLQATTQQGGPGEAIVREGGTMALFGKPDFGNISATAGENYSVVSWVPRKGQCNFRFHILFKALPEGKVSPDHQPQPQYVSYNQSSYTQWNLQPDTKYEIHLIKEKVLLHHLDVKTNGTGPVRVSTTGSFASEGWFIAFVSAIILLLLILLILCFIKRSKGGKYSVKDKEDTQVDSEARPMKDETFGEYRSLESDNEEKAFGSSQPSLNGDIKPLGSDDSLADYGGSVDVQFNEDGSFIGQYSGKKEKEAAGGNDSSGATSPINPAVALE

B1: Ab4H5 antibody (antibody, human IgG1, kappa, V domains shown)
VH: EVQLVESGGGVVQPGGSLRLSCAASGFTFSRFGMHWVRQAPGKGLEWVAFISNEGSNKYYADSVKGRFTISRDNSANTLYLQMNSLRAEDTAVYYCARGRAYGSGSLFDPWGQGTLVTVSS
VL: DIQLTQSPSSLSASVGDRVTITCRASRTISSYVNWYRQRPGKAPESLIYAASNLHSGVPSRFSGSGSGTDFTLTISSLQPEDFATYYCQQAGFYTPWTFGQGTKLEIKR
notes: Whole human IgG1, kappa; also called Anti-L1CAM ("Ab4H5"); Ab4H5 mutant
B1: in assay [1], the Kd (commonly the constant that tells how readily two partners part at equilibrium) turned out to be 0.00822 nM; the koff (commonly a measure of how fast the partners let go of each other) turned out to be 2.98e-06 s⁻¹; the kon (as a rule, the second-order rate constant of association) came to 363000 M⁻¹ s⁻¹. Also, the binding result in assay [2] is “binds”. Besides, the fold increased affinity compared to Ab417 in assay [3] stood at 25 fold. In addition, the Affinity (K) in assay [4] was 60 pM.

B2: Ab612 antibody (antibody, human IgG1, kappa, V domains shown)
VH: EVQLVESGGGVVQPGGSLRLSCAASGFTFSRFGMHWVRQAPGKGLEWVAFISNEGSNKYYADSVKGRFTISRDNSANTLYLQMNSLRAEDTAVYYCARGRAYGSGSLFDPWGQGTLVTVSS
VL: DIQLTQSPSSLSASVGDRVTITCRASRTISSYVNWYRQRPGKAPESLIYAASNLHSGVPSRFSGSGSGTDFTLTISSLQPEDFATYYCQQSIGRGPVTFGQGTKLEIKR
notes: Whole human IgG1, kappa, purified on protein A; also called Anti-L1CAM ("Ab612")
In assay [1], B2 registered a Kd of 0.105 nM, a koff of 3.28e-05 s⁻¹ and an on-rate (kon) of 313000 M⁻¹ s⁻¹. The binding result in assay [2] is “binds”. The Affinity (K) in assay [4] amounted to 260 pM. In assay [5], this molecule showed a fold higher binding affinity than Ab417 of 2 to 10 fold.

B3: Ab5D12 antibody (antibody, human IgG1, kappa, V domains shown)
VH: EVQLVESGGGVVQPGGSLRLSCAASGFTFSRFGMHWVRQAPGKGLEWVAFISNEGSNKYYADSVKGRFTISRDNSANTLYLQMNSLRAEDTAVYYCARGRAYGSGSLFDPWGQGTLVTVSS
VL: DIQLTQSPSSLSASVGDRVTITCRASRTISSYVNWYRQRPGKAPESLIYAASNLHSGVPSRFSGSGSGTDFTLTISSLQPEDFATYYCQQSLVWYPWTFGQGTKLEIKR
notes: Whole human IgG1, kappa; also called Anti-L1CAM ("Ab5D12"); Ab5D12 mutant
For the molecule B3, in assay [1], the dissociation constant (Kd) worked out at 0.096 nM, the off-rate (koff) was found to be 3.94e-05 s⁻¹ and the on-rate (kon) was 411000 M⁻¹ s⁻¹. In addition, the binding result in assay [2] is “binds”. The Affinity (K) in assay [4] came to 120 pM.

B4: Ab2C2 antibody (antibody, human IgG1, kappa, V domains shown)
VH: EVQLVESGGGVVQPGGSLRLSCAASGFTFSRFGMHWVRQAPGKGLEWVAFISNEGSNKYYADSVKGRFTISRDNSANTLYLQMNSLRAEDTAVYYCARGRAYGSGSLFDPWGQGTLVTVSS
VL: DIQLTQSPSSLSASVGDRVTITCRASRTISSYVNWYRQRPGKAPESLIYAASNLHSGVPSRFSGSGSGTDFTLTISSLQPEDFATYYCQQAGFYSPWTFGQGTKLEIKR
notes: Whole human IgG1, kappa; also called Anti-L1CAM ("Ab2C2"); Ab2C2 mutant
In assay [1], B4 registered a Kd below 0.001 nM, a koff below 1e-07 s⁻¹ and a kon of 344000 M⁻¹ s⁻¹. The binding result in assay [2] was “binds”. In addition, the fold higher binding affinity than Ab417 in assay [6] is 2 to 10 fold. The molecule further returned an Affinity (K) in assay [4] of 50 pM.

B5: Ab4H6 antibody (antibody, human IgG1, kappa, V domains shown)
VH: EVQLVESGGGVVQPGGSLRLSCAASGFTFSRFGMHWVRQAPGKGLEWVAFISNEGSNKYYADSVKGRFTISRDNSANTLYLQMNSLRAEDTAVYYCARGRAYGSGSLFDPWGQGTLVTVSS
VL: DIQLTQSPSSLSASVGDRVTITCRASRTISSYVNWYRQRPGKAPESLIYAASNLHSGVPSRFSGSGSGTDFTLTISSLQPEDFATYYCQQSLHFYPWTFGQGTKLEIKR
notes: Whole human IgG1, kappa; also called Anti-L1CAM ("Ab4H6"); Ab4H6 mutant
Consider B5, for which, in assay [1], the Kd was 0.0741 nM, the koff came out at 2.77e-05 s⁻¹ and the kon was 373000 M⁻¹ s⁻¹. For the same molecule, the binding result in assay [2] is reported as “binds”. In assay [4], this molecule yielded an Affinity (K) of 60 pM.

The values above are taken from US20240301056A1 (APITBIO, published 2024).
